Experimental data published in patent US20070167369A1, “Novel use of isolated polypeptide comprising four FAS-1 domains, EM1 domain and RGD motif” (KYUNGPOOK NATIONAL UNIVERSITY INDUSTRY-ACADEMIC COOPERATION …, priority 2004, published 2007).

Tests used:
[1] = system: FAK-Raf-ERK/AKT signal transduction pathway; assay: Western blot of phosphorylation of FAK-Raf-ERK/AKT pathway enzymes in HUVECs (Example 12); type: cell-based, human; conditions: 20 μM
Description: To examine the inhibitory mechanism of the fas-1 domain against endothelial cell proliferation and migration, the amount and activity of enzymes related to a FAK-Raf-ERK/AKT signal transduction pathway that is a typical signal transduction pathway in cells was determined by Western blot analysis on HUVECs treated with the fas-1 domain. Since the signal transduction-related proteins undergo phosphorylation during their activation process, the amount of phosphorylated proteins can be measured to predict their activity.
HUVECs were spread onto a 100-mm plate with 10% FBS-containing M199 medium, and incubated in an incubator at 37° C. for 12 hours. Following this, the culture medium was replaced with fresh medium containing 0.1% FBS and then further incubated for 24 hours. After removing the medium, the cells were washed one time with PBS buffer. The cells were detached from the plate by treatment with Trypsin-EDTA solution. The cells were suspended in 10% FBS-containing medium. Fas-1 protein was added to the cell suspension at final concentration of 20 μM. A control was added with PBS buffer. Thereafter, 3 ml of the cell mixture was taken and spread onto a plate coated with collagen. After 30 minutes, 60 minutes and 90 minutes, respectively, the medium was removed from the plate, and the cells were washed one time with PBS buffer. The cells were added with 200 μl of cell lysis buffer and left to stand on ice. The cell lysate was centrifuged at 12,000 rpm for 10 minutes at 4° C., and the supernatant containing a soluble protein was collected. Next, to quantify the concentration of the protein, a Bradford assay (BioRad, Hercules, Calif.) was performed using BSA as the standard protein. 30 μg of each of the sample proteins was electrophoresed on 10% SDS-polyacrylamide gel. The protein on the gel was transferred onto a nitrocellulose membrane, using electrophoresis. The protein transferred to the membrane was reacted with 5% skimmed milk for one hour to block nonspecific protein binding. Following this, it was reacted with the following various antibodies to signal transduction proteins: FAK (BD Science, Franklin Lakes, N.J., USA), pFAK (phosphorylated FAK; Santa Cruz Co., CA, USA), ERK (Sanca Cruz Co., CA, USA), pERK (phosphorylated ERK; Santa Cruz Co., CA, USA), AKT (Cell Signaling Technology Co., Beverly, Mass.), pAKT (phosphorylated AKT; Cell Signaling Technology Co., Beverly, Mass.), Raf1 (Santa Cruz Co., CA, USA) and pRaf1 (phosphorylated Raf1, Santa Cruz Co., CA, USA). The antibodies had been diluted in TBST (50 mM Tris-HCl, pH 7.6, 150 mM NaCl, 0.1% Tween 20) before use. The binding reaction with the antibodies was performed for at least 12 hours in a refrigeration condition. After completion of the reaction, the membrane was washed three times with TBST solution. Thereafter, the membrane was added with HRP-conjugated secondary antibodies (HRP-conjugated-anti-mouse IgG and HRP-conjugated-anti-rabbit IgG; Santa Cruz Co., CA, USA), and a binding reaction with the secondary antibodies was performed at room temperature for one hour. Next, the membrane was washed three times, and then added with 1 ml of ECL as chemiluminescent solution, so that sites where antigen-antibody reaction occurred were visualized by fluorescence. The membrane was exposed to an X-ray film.

[2] = system: HUVECs; assay: Transwell migration of endothelial cells toward βig-h3 (Example 4-2); type: cell-based, human
Description: The present inventors tested whether the fas-1 domain has the activity to inhibit the migration of endothelial cells (Nam, J. O. et al., J. Biol. Chem., 278:25902-25909, 2003). Cell migration assay was performed in a transwell plate (8 μm pore size, Costar, Cambridge, Mass.). The undersurface of the membrane was coated with the recombinant βig-h3 His-1-b (10 μg/ml) protein prepared in Example 1, at 4° C., and then, blocked for 1 hour at room temperature with PBS buffer containing 2% BSA. Meanwhile, HUVECs were added with the fas-1 domain (βig-h3 D-IV) prepared in Example 1, and preincubated at 37° C. for 30 minutes. A control was added with 2% BSA. Then, the HUVECs preincubated with the fas-1 domain were suspended in medium at a density of 3×10^5 cells/ml, and 0.1 ml of the cell suspension was added to the upper compartment of the filter. The cells were allowed to migrate at 37° C. for 6-8 hours.
Migration was terminated by removing the cells from the upper compartment of the filter with a cotton swab. The filters were fixed with 8% glutaraldehyde and stained with crystal violet. The extent of cell migration was determined by light microscope, and within each well, cell counting was done in nine randomly selected fields HPF (Microscopic high power fields, x200).

[3] = system: melanoma cells (B16F10); assay: Proliferation of fas-1-overexpressing melanoma cells, MTT (Example 10-1); type: cell-based, murine; conditions: fas-1 domain overexpressed (fas-1/B16F10) vs pLNCX/B16F10, 48-72 hours
Description: cDNA (SEQ ID NO: 65) encoding the fourth fas-1 domain of βig-h3 was cloned into the EcoRI/XhoI sites of a pLNCX retrovirus vector (Clontech Lab. Inc., USA). The resulting recombinant retrovirus vector was named “fas-1/pLNCX”. Packaging cell PT67 (Clontech Lab. Inc., USA) were transfected with the fas-1/pLNCX vector using lipofectamine. The transformed cells were incubated at 37° C. for 48 hours. After completion of the incubation, virus particles present in the culture medium were collected, and filtered one time through a 0.45-μm filter. The filtered virus particles were added to a culture medium of melanoma cells (B16F10), and then allowed to react at 37° C. for 6 hours. The culture medium was replaced with fresh medium, and the transfected cells were screened several times in the presence of 1 mg/ml of G418. Western blot analysis using a βig-h3 antibody was performed to confirm that the fas-1 domain is overexpressed in the screened transfected cells. As a result, fas-1-overexpressing melanoma cells (hereinafter, referred to as “fas-1/B16F10”) were prepared. […]
Each of the fas-1-overexpressing melanoma cells (fas-1/B16F10) and the control cells (pLNCX/B16F10) was suspended in medium at a density of 3×10^4 cells/ml, and 0.1 ml of the cell suspension was added to each well of a 96-well plate. […] Thereafter, the absorbance was measured at 570 nm in a Bio-Rad model 550 microplate reader.

[4] = collagen-coated plate, 30, 60, 90 minutes

B1: fas-1 domain: recombinant protein containing the fourth fas-1 domain of human βig-h3 (SEQ ID NO: 64) (protein, listed as Homo sapiens)
chain: MGTVMDVLKGDNRFSMLVAAIQSAGLTETLNREGVYTVFAPTNEAFRALPPRERSRLLGDAKELANILKYHIGDEILVSGGIGALVRLKSLQGDKLEVSLKNNVVSVNKEPVAEPDIMATNGVVHVITNVL
absolute amounts of FAK, Raf1, ERK and AKT enzymes in the cells vs control [1]: not significantly different
phosphorylation of AKT [1, 4]: greatly reduced as compared to that of the control
phosphorylation of ERK [1, 4]: no increase in phosphorylation until 90 minutes
phosphorylation of FAK [1, 4]: reduced as compared to the control
phosphorylation of Raf1 [1, 4]: greatly reduced as compared to that of the control
inhibitory effect of endothelial cell migration compared with YH motif-containing peptide fragment of 18 amino acids ([2]; 20 μM fas-1 domain vs 1,000 μM YH peptide): higher
inhibition of migration of endothelial cells promoted by βig-h3 ([2]; transwell coated with βig-h3 His-1-b 10 μg/ml): inhibited by the fas-1 domain in a dose-dependent manner
effect on proliferation of melanoma cells [3]: no effect on the proliferation of melanoma cells
